Assay results reported in patent US20220040304A1, “A COMPOSITION FOR CANCER CELL DEATH AND ITS USE” (Industry-University Cooperation Foundation Hanyang …, priority 2018, published 2022).

Assays:
[1] = Fluorescence assay of purified proteins (excitation/emission); assay type: physicochemical; settings: protein 10 μM in 1×PBS
Method: 100 μL of buffer (1×PBS) containing the protein purified in Example 1 (final concentration: 10 μM) was dispensed into a 96-well plate (SPL Cell Culture Plate, 96 well (SPL, Cat #32096)). Afterward, a fluorescence signal level was detected by fluorescence assay using a Thermo Scientific™ Varioskan™ Flash Multimode Reader.

MDA-MB-435 [2] = assay: Cell death with Co-h substrate by cell type (SYTOX Green or EthD-1/DAPI); assay type: cell-based, human; settings: MDA-MB-435, protein 10 μM, Co-h 150 μM for 5 minutes
Method: (§1) The cells were seeded at 5×10^5 cells/mL in 96-well plates (SPL Cell Culture Plate, 96 well (SPL, Cat #30096)), and cultured at 37° C. for 24 hours (overnight). After the culture for 24 hours, the cells were washed with FBS & phenol red-free media, and 100 μL of FBS & phenol red-free media containing a purified protein (final concentration: 10 μM) was added, followed by reaction at 37° C. for 24 hours.
(§2) Subsequently, the cells were washed with FBS & phenol red-free media, and 100 μL of FBS & phenol red-free media was added. 100 μL of FBS & Phenol red-free media (RPMI) containing a Co-h substrate solution (final concentration: 150 μM) was added, followed by reaction at 37° C. for 5 minutes.
(§3) After the reaction, 50 μL of SYTOX Green (final concentration: 261 nM) or 90 μL of ethidium homodimer (EthD-1) (final concentration 1×), which stains DNA of dead cells, was added, followed by reaction at 37° C. for 30 minutes. 10 μL of DAPI staining DNA of live cells was added, followed by reaction for 5 minutes. Cell death was confirmed by observing KillerRed, SYTOX Green, MiniSOG, EthD-1 and DAPI fluorescence using a confocal microscope.

MCF-7 = assay: as above; assay type: cell-based, human; settings: MCF-7, protein 10 μM, Co-h 150 μM for 5 minutes
Method: as §1, §2, §3

MDA-MB-231 = assay: as above; assay type: cell-based, human; settings: MDA-MB-231, protein 10 μM, Co-h 150 μM for 5 minutes
Method: as §1, §2, §3

[3] = system: patient breast cancer cell lines (primary cells, triple negative); assay: Cytotoxic effect in patient primary breast cancer cells (triple negative); assay type: cell-based; settings: protein 10 μM
Method: Cells were seeded at 5×10^5 cells/mL in 96-well plates (SPL Cell Culture Plate, 96 well (SPL, Cat #30096)), and cultured at 37° C. for 24 hours. After the culture for 24 hours, the cells were washed with primary cell media, and 100 μL of primary cell media containing a purified protein (final concentration: 10 μM) was added, followed by reaction at 37° C. for 12 hours.
After the reaction for 24 hours, the cells were washed with primary cell media, and 100 μL of primary cell media was added. After treatment with a Co-h substrate solution (final concentration: 150 μM) for 5 minutes or irradiation with light at 10 mW/cm^2 for 5 minutes, 50 μL of SYTOX Green (final concentration: 261 nM) staining DNA of dead cells was added, followed by reaction at 37° C. for 30 minutes.
10 μL of DAPI staining DNA of live cells was added, followed by reaction for 5 minutes. Cell death was confirmed by fluorescence imaging of SYTOX Green and DAPI fluorescence according to the type of protein treating cells and the light irradiation time using a confocal microscope. Data on patient breast cancer cell lines used in this example are as follows (Table 5).

MDA-MB-435 [4] = assay: Cell death after light irradiation by cell type (SYTOX Green/DAPI); assay type: cell-based, human; settings: MDA-MB-435, protein 10 μM, light 10 mW/cm^2 for 10 minutes
Method: MDA-MB-435: (Origin: breast, mammary gland, Species: human—person, Media: DMEM with glucose (4.5 g/L), L-glutamine and sodium pyruvate, 90%; heat inactivated fetal bovine serum (FBS), 10%), purchased from ATCC (USA).
as §1, with “hours. After the reaction for 24 hours, the cells were washed with FBS & phenol red-free media, and 100 μL of FBS & phenol red-free media was added.” for “hours.”
After irradiation with light at 10 mW/cm^2 for 10 minutes, 50 μL (final concentration: 261 nM) of SYTOX Green staining DNA of dead cells was added, followed by reaction at 37° C. for 30 minutes. 10 μL of DAPI staining DNA of live cells was added, followed by reaction for 5 minutes. Cell death was confirmed by observing KillerRed, SYTOX Green and DAPI fluorescence using a confocal microscope.

MCF-7 cells = assay: Cell death according to presence of serum and protein concentration (Co-h); assay type: cell-based, human; settings: MCF-7, serum-free media or serum-containing media, 12 hours, Co-h 150 μM
Method: MCF-7 cells were seeded at 5×10^5 cells/mL in a 96-well plate (SPL Cell Culture Plate, 96 well (SPL, Cat #30096)), and cultured at 37° C. for 24 hours (overnight). After the culture for 24 hours, the cells were washed with FBS & Phenol red-free media (RPMI), and 100 μL of FBS & Phenol red-free media (RPMI) or FBS media (RPMI) containing a predetermined concentration of purified protein, followed by reaction at 37° C. for 12 hours.
After the reaction for […], the cells were washed with FBS & Phenol red-free media (RPMI), 100 μL of FBS & Phenol red-free media (RPMI) containing a Co-h substrate solution (final concentration: 150 μM) and SYTOX Green (final concentration: 261 nM) staining DNA of dead cells was added, followed by reaction at 37° C. for 30 minutes.
After the reaction, 10 μL of DAPI staining DNA of live cells was added, followed by reaction for 5 minutes. Cell death was confirmed by observing KillerRed, SYTOX Green and DAPI fluorescence using a confocal microscope.

| Molecule | emission wavelength (fluorescence) [1] [nm] | excitation wavelength [1] [nm] | cell death with Co-h substrate (MDA-MB-435 [2]) | cell death with Co-h substrate (MCF-7) | cell death with Co-h substrate (MDA-MB-231) | death of Co-h substrate-added cells compared with light irradiation ([3]; Co-h 150 μM for 5 minutes) | cytotoxic effect in patient breast cancer cell lines ([3]; Co-h 150 μM for 5 minutes or light 10 mW/cm^2 for 5 minutes) | cell death after light irradiation (MDA-MB-435 [4]) | number of cells stained with SYTOX Green according to protein concentration (MCF-7 cells) |
| --- | --- | --- | --- | --- | --- | --- | --- | --- | --- |
| KR: first protein KillerRed, ROS-generating protein (superoxide), expressed from pRSET-KillerRed, 31 kDa (protein, pRSET-KillerRed, first protein KillerRed, ROS-generating protein (superoxide), expressed from pRSET-KillerRed, 31 kDa) MRGSHHHHHHGMASMTGGQQMGRDLYDDDDKDPMLCCMRRTKQVEKNDEDQKISEGGPALFQSDMTFKIFIDGEVNGQKFTIVADGSSKFPHGDFNVHAVCETGKLPMSWKPICHLIQYGEPFFARYPDGISHFAQECFPEGLSIDRTVRFENDGTMTSHHTYELDDTCVVSRITVNCDGFQPDGPIMRDQLVDILPNETHMFPHGPNAVRQLAFIGFTTADGGLMMGHFDSKMTFNGSRAIEIPGPHFVTIITKQMRDTSDKRDHVCQREVAYAHSVPRITSAIGSDED | 610 | 585 | – | – | – | – | – | – | – |
| RLuc8.6-KR: fusion protein of RLuc8.6 and KillerRed without lead peptide, 69 kDa (protein, pRSET-RLuc8.6-KillerRed) MRGSHHHHHHGMASMTGGQQMGRDLYDDDDKDPMASKVYDPEQRKRMITGPQWWARCKQMNVLDSFINYYDSEKHAENAVIFLHGNATSSYLWRHVVPHIEPVARCIIPDLIGMGKSGKSGNGSYRLLDHYKYLTAWFELLNLPKKIIFVGHDWGSALAFHYAYEHQDRIKAIVHMESVVDVIESWMGWPDIEEELALIKSEEGEKMVLENNFFVETLLPSKIMRKLEPEEFAAYLEPFKEKGEVRRPTLSWPREIPLVKGGKPDVVQIVRNYNAYLRASDDLPKLFIESDPGFFYNAIVEGAKKFPNTEFVKVKGLHFLQEDAPDEMGKYIKSFVERVLKNEQEFGGGMLCCMRRTKQVEKNDEDQKISEGGPALFQSDMTFKIFIDGEVNGQKFTIVADGSSKFPHGDFNVHAVCETGKLPMSWKPICHLIQYGEPFFARYPDGISHFAQECFPEGLSIDRTVRFENDGTMTSHHTYELDDTCVVSRITVNCDGFQPDGPIMRDQLVDILPNETHMFPHGPNAVRQLAFIGFTTADGGLMMGHFDSKMTFNGSRAIEIPGPHFVTIITKQMRDTSDKRDHVCQREVAYAHSVPRITSAIGSDED | – | – | none of the six breast cancer cell lines were killed | none of the six breast cancer cell lines were killed | none of the six breast cancer cell lines were killed | – | – | – | – |
| RLuc8.6-KR-LP: fusion protein of RLuc8.6, KillerRed and lead peptide WLEAAYQRFL, 71 kDa (protein, pRSET-RLuc8.6-KillerRed-Lead peptide) MRGSHHHHHHGMASMTGGQQMGRDLYDDDDKDPMASKVYDPEQRKRMITGPQWWARCKQMNVLDSFINYYDSEKHAENAVIFLHGNATSSYLWRHVVPHIEPVARCIIPDLIGMGKSGKSGNGSYRLLDHYKYLTAWFELLNLPKKIIFVGHDWGSALAFHYAYEHQDRIKAIVHMESVVDVIESWMGWPDIEEELALIKSEEGEKMVLENNFFVETLLPSKIMRKLEPEEFAAYLEPFKEKGEVRRPTLSWPREIPLVKGGKPDVVQIVRNYNAYLRASDDLPKLFIESDPGFFYNAIVEGAKKFPNTEFVKVKGLHFLQEDAPDEMGKYIKSFVERVLKNEQEFGGGMLCCMRRTKQVEKNDEDQKISEGGPALFQSDMTFKIFIDGEVNGQKFTIVADGSSKFPHGDFNVHAVCETGKLPMSWKPICHLIQYGEPFFARYPDGISHFAQECFPEGLSIDRTVRFENDGTMTSHHTYELDDTCVVSRITVNCDGFQPDGPIMRDQLVDILPNETHMFPHGPNAVRQLAFIGFTTADGGLMMGHFDSKMTFNGSRAIEIPGPHFVTIITKQMRDTSDKRDHVCQREVAYAHSVPRITSAIGSDEDGGGWLEAAYQRFL | – | – | killed them | killed them | killed them | more effectively shown | a cytotoxic effect was exhibited | killing the three types of cancer cell lines | the higher the number of cells stained with SYTOX Green |
